Reference: patent publication US20260028417A1 (SICHUAN KELUN BIOTECH BIOPHARMACEUTICAL, published 2026)

T1: monkey HER3 protein (extracellular sequence with six histidines at the C-terminal) (monkey)
T1 construct: Made in HEK293 cells; also called Monkey HER3-His
T1 chain: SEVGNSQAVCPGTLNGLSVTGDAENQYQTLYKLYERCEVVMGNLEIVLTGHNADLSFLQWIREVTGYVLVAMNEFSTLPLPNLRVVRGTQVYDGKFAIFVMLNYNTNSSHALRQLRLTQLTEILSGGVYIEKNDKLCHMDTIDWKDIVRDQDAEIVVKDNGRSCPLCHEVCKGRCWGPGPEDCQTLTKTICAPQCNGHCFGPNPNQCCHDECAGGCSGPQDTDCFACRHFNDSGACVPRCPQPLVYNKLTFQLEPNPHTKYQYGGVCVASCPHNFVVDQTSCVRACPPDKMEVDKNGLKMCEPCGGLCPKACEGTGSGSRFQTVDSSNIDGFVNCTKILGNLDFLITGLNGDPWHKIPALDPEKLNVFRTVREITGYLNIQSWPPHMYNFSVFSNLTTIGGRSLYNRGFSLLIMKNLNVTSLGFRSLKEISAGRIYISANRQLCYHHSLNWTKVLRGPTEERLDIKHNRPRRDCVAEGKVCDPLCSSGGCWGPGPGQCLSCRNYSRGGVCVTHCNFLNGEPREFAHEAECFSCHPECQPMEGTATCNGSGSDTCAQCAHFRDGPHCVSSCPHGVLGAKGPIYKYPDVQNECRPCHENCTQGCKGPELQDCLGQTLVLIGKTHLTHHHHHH

B1: 22B6D2-hIgG (anti-human HER3 fully human antibody) (antibody, V domains shown)
VH: EVHLVESGGGVVQPGRSLRLSCATSGFTFRSYGMHWVRQAPGKGLEWVAVIWYDGSNKYYADSVKGRFTISRDISKNTLYLQMNSLTAEDTAVYYCARYYYDSNGYYDAFDIWGQGTMVTVSS
VL: DIQLTQSPSFLSASVGDRVTITCRASQGISNYLAWYQQKPGKAPKLLIFAASTLQSGVPSRFSGSGSGAEFTLTISSLEPEDFATYYCQQLNSYPITFGQGTRLEIKR
notes: Human IgG1/kappa, expressed in CHO-S cells; also called 22B6D2-hIgG-Bio (biotin-labelled)
B2: 22B6D2 (anti-human HER3 chimeric antibody) (antibody, V domains shown)
VH: B1 VH
VL: DIQLTQSPSFLSASVGDRVTITCRASQGISNYLAWYQQKPGKAPKLLIFAASTLQSGVPSRFSGSGSGAEFTLTISSLEPEDFATYYCQQLNSYPITFGQGTRLEIK
notes: detected with anti-Rat IgG
B3: 44A4A11 (anti-human HER3 chimeric antibody) (antibody, V domains shown)
VH: EVQLLESGGGLVQPGGSLRLSCAASGFTFSSYAMNWVRQAPGKGLEWVSSISDSGGSTYYADSVKGRFTISRDNSKNTLYLQMNSLRAEDTAVYYCAKDGGISMVRGVIIEEGYFDLWGRGTLVTSPQ
VL: DIQLTQSPSFLSASVGDRVTITCRASQGISSYLAWYQQKPGKAPKLLIYVVSTLQSGVPSRFSGSGSGTEFTLTISSLQPEDFATYYCHQLNSYPLTFGGGTKVEIK
B4: 100H7D3-hIgG (anti-human HER3 fully human antibody) (antibody, V domains shown)
VH: EVQLVESGGGVVLPGRSLRLSCAASGFTFSRNAMHWVRQAPGKGLEWVAVIWHDGSNKYYGDSVKGRFTISRDNSKNTLYLQMDSLTAEDTAVYYCARDRGASDFRGQGTLVTVSS
VL: DIQMTQSPSTLSASVGDRVTITCRASQSINNWLAWYQQKPEKAPKLLIYKASSLESGVPSRFSGSGSGTEFTLTISSLQPDDFATYYCQQYNSYSLTFGGGTKVEIKR
notes: Human IgG1/kappa, expressed in CHO-S cells; also called 100H7D3-hIgG-Bio (biotin-labelled)
B5: 100H7D3 (anti-human HER3 chimeric antibody) (antibody, V domains shown)
VH: B4 VH
VL: DIQMTQSPSTLSASVGDRVTITCRASQSINNWLAWYQQKPEKAPKLLIYKASSLESGVPSRFSGSGSGTEFTLTISSLQPDDFATYYCQQYNSYSLTFGGGTKVEIK
B6: 47A3E3-hIgG (anti-human HER3 fully human antibody) (antibody, V domains shown)
VH: EVQLQESGPGLVKPSQTLSLTCAISGDSVSSSQSTWNWIRQSPSRGLEWLGRTFYRSRWYNDYALSMKSRITINPDTSKNQFSLQLNPVTPEDTAVYYCARDTYYYGSGGFDYWGQGSRVTVSS
VL: DIQMTQSPSTLSASVGDRVTITCRASQSLSRWLAWYQQKPEKAPKLLIYKASSLESGVPSRFSGSGSGTEFTLTISTLQPDDFATYYCQQYKNYYSFGQGTKLEIKR
notes: Human IgG1/kappa, expressed in CHO-S cells; also called 47A3E3-hIgG-Bio (biotin-labelled)
B7: 47A3E3 (anti-human HER3 chimeric antibody) (antibody, V domains shown)
VH: B6 VH
VL: DIQMTQSPSTLSASVGDRVTITCRASQSLSRWLAWYQQKPEKAPKLLIYKASSLESGVPSRFSGSGSGTEFTLTISTLQPDDFATYYCQQYKNYYSFGQGTKLEIK

Assays:
human HER3 on cells [1] = target: T2, human HER3 on cells (human, UniProt P21860 20-1342); experiment: cell-based or functional assay
human HER3 on cells [2] = target: T2, human HER3 on cells; experiment: cell-based or functional assay; remark: listed apart in the source
human HER3 on cells [3] = target: T2, human HER3 on cells; experiment: cell-based or functional assay; remark: listed apart in the source
human HER3 on cells [4] = target: T2, human HER3 on cells; experiment: cell-based or functional assay; remark: listed apart in the source
[5] = target: T3, human HER3 protein (extracellular sequence with six histidines at the C-terminal) (human, UniProt P21860 20-643); experiment: ELISA, coated human HER3-His
T3 construct: extracellular domain; Made in HEK293 cells; also called Human HER3-His
Experimental: (§1) The plate was washed 5 times with PBST (0.2% Tween-20), and dried, then 100 μl of TMB (InnoReagents) chromogenic substrate was added to each well, reacted at room temperature for 3-5 minutes, then 50 μl of 2N H₂SO₄ was added to each well to stop the chromogenic reaction, and the absorbance value at OD450 nm was read with a microplate reader. The raw data were imported into GraphPad Prism 6 software for nonlinear curve fitting, and EC50 values were calculated.

human HER3 on cells [6] = target: T2, human HER3 on cells; experiment: flow cytometry on T47D cells
Experimental: (§2) Data processing: the Median PE values were exported, then imported into GraphPad Prism 6 software, and EC50 values were calculated.

[7] = target: T1, monkey HER3 protein (extracellular …); experiment: ELISA, coated monkey HER3-His
Experimental: as §1

human HER3 on cells [8] = target: T2, human HER3 on cells; experiment: flow cytometry on NCI-N87 cells
Experimental: as §2

human HER3 on cells [9] = target: T2, human HER3 on cells; experiment: flow cytometry on NCI-H358 cells
Experimental: as §2

[10] = target: T3, human HER3 protein (extracellular …); experiment: BLI (ForteBio), antibody captured on Protein A sensor, human HER3-His in solution, 1:1 global fit
Experimental: (§3) The measured results were entered into Data Analysis 11.0 software, by using 1:1 mode, and global fitting; the results were analyzed to obtain the association rate, dissociation rate and affinity constant.

[11] = target: T1, monkey HER3 protein (extracellular …); experiment: BLI (ForteBio), antibody captured on Protein A sensor, monkey HER3-His in solution, 1:1 global fit
Experimental: as §3

human HER3 on cells [12] = target: T2, human HER3 on cells; experiment: competition flow cytometry on adherent cells (cell line not named in paragraph 175); competitor: 22B6D2-hIgG-Bio, final 25 ng/ml; PE streptavidin
Text: (§4) Data processing: the Median PE values were exported, and then imported into GraphPad Prism 6 software for nonlinear curve fitting (4-parameter).

[13] = target: T3, human HER3 protein (extracellular …); experiment: competition ELISA on coated human HER3 protein (1 µg/ml); competitor: biotin-labelled 22B6D2-hIgG (22B6D2-hIgG-Bio, diluted to 3 ng/mL); streptavidin-HRP, OD450
Experimental: (§5) The plate was washed with PBST (0.2% Tween-20) for 3 times, and dried, 100 μl of diluted Peroxidase-conjugated Streptavidin secondary antibody (Proteintech) was added to each well, and incubated at room temperature for 1 hour; the plate was washed 5 times with PBST (0.2% Tween-20), and dried, 100 μl of TMB (InnoReagents) chromogenic substrate was added to each well, reacted at room temperature for 3-5 minutes; 50 μl of 2N H₂SO₄ was added to each well to stop the chromogenic reaction, and OD450 nm absorbance value was read with a microplate reader. The raw data were imported into GraphPad Prism 6 software for nonlinear curve fitting (4-parameter).

[14] = target: T3, human HER3 protein (extracellular …); experiment: ELISA, coated human HER3 protein, chimeric antibody
Experimental: (§6) The plate was washed 5 times with PBST (0.2% Tween-20). After the plate was dried, 100 μl of TMB (CoWin Biotech) chromogenic substrate was added to each well, reacted at room temperature for 3-5 minutes; 50 μl of 2N H₂SO₄ was added to each well to stop the chromogenic reaction, and absorbance value at OD450 nm was read with a microplate reader. The raw data were imported into GraphPad Prism 6 software for nonlinear curve fitting, and the EC50 values of each antibody binding to human HER3 and monkey HER3 were calculated.

[15] = target: T1, monkey HER3 protein (extracellular …); experiment: ELISA, coated monkey HER3 protein, chimeric antibody
Experimental: as §6

rat HER3 protein [16] = target: T4, rat HER3 protein (rat, UniProt Q62799 20-643); experiment: ELISA, coated rat HER3-His
T4 construct: whole entry named; also called Rat HER3-His; rat protein
T4 sequence (Q62799 20-643): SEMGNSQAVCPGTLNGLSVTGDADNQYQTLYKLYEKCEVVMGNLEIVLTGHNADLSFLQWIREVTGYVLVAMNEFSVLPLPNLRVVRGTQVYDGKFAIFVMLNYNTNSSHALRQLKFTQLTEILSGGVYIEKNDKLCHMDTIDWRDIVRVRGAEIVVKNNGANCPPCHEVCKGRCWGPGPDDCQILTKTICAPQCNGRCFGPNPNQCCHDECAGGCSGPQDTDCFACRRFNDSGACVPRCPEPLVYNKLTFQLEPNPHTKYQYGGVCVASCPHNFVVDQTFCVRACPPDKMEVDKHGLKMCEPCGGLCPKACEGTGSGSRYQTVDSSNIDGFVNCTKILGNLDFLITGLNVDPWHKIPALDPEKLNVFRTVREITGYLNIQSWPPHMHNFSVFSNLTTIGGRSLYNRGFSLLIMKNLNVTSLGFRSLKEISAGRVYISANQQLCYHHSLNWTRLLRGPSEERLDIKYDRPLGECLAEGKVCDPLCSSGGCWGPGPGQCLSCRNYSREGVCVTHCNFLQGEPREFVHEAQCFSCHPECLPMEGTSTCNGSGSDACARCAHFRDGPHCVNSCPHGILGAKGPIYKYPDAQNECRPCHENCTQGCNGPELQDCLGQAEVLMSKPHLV
Experimental: as §1

human HER3 on cells [17] = target: T2, human HER3 on cells; experiment: competition flow cytometry on adherent cells (cell line not named in paragraph 175); competitor: 100H7D3-hIgG-Bio, final 200 ng/ml; PE streptavidin
Text: as §4

rat HER3 protein [18] = target: T4, rat HER3 protein; experiment: ELISA, rat HER3 protein coated at 1 µg/ml, anti-human IgG-HRP, OD450
Experimental: as §1

[19] = target: T3, human HER3 protein (extracellular …); experiment: competition ELISA on coated human HER3 protein (1 µg/ml); competitor: biotin-labelled U1-59 (U1-59-Bio, diluted to 50 ng/ml); streptavidin-HRP, OD450
Experimental: as §5

[20] = target: T3, human HER3 protein (extracellular …); experiment: competition ELISA on coated human HER3 protein (1 µg/ml); competitor: biotin-labelled 47A3E3-hIgG (47A3E3-hIgG-Bio, diluted to 15 ng/mL); streptavidin-HRP, OD450
Experimental: as §5

Binder | ADCC activity, EC50 (Jurkat-NFAT/luciferase-CD16a reporter with CHO-S-hHER3 target cells) (human HER3 on cells [2]) | EC50 [5] | EC50 (human HER3 on cells [6]) | EC50 [7] | EC50 (human HER3 on cells [8]) | EC50 (human HER3 on cells [9]) | Kd [10] | koff [10] | kon [10] | Kd [11] | koff [11] | kon [11] | EC50 [14] | EC50 [15] | further results
B1 | 0.00973 µg/mL | 0.00407 µg/mL | 0.0383 µg/mL | 0.00363 µg/mL | 0.0446 µg/mL | 0.0857 µg/mL | 11.1 nM | 0.00397 s⁻¹ | 357000 M⁻¹ s⁻¹ | 49.6 nM | 0.00825 s⁻¹ | 166000 M⁻¹ s⁻¹ |  |  | ADCC activity, enhancement against U1-59 (human HER3 on cells [1]): 1.86 fold; IC50 of inhibition of ligand (NRG1)-induced AKT phosphorylation in MCF-7 cells (human HER3 on cells [3]): 0.0912 µg/mL; internalization activity, EC50, HPAF-II cells (flow cytometry) (human HER3 on cells [4]): 0.0294 µg/mL; internalization activity, EC50, MDA-MB-453 cells (flow cytometry) (human HER3 on cells [4]): 0.0229 µg/mL; internalization activity, EC50, NCI-358 cells (flow cytometry) (human HER3 on cells [4]): 0.067 µg/mL; internalization activity, EC50, WIDR cells (flow cytometry) (human HER3 on cells [4]): 0.0301 µg/mL; IC50 (read off the curve) (human HER3 on cells [12]): ~0.1 µg/mL; IC50 (read off the curve) [13]: ~0.4 µg/mL
B2 |  |  |  |  |  |  |  |  |  |  |  |  | 0.0054 µg/mL | 0.0071 µg/mL | 
B3 |  |  |  |  |  |  |  |  |  |  |  |  | 0.0121 µg/mL | 0.0065 µg/mL | 
B4 | 0.0257 µg/mL | 0.00849 µg/mL | 0.203 µg/mL | 0.0131 µg/mL | 0.218 µg/mL | 0.29 µg/mL | 7.47 nM | 0.00226 s⁻¹ | 302000 M⁻¹ s⁻¹ | 5.44 nM | 0.000926 s⁻¹ | 170000 M⁻¹ s⁻¹ |  |  | EC50 (rat HER3 protein [16]): 0.00937 µg/mL; IC50 (read off the curve) (human HER3 on cells [17]): ~0.4 µg/mL
B5 |  |  |  |  |  |  |  |  |  |  |  |  | 0.0131 µg/mL | 0.0187 µg/mL | 
B6 | 0.0223 µg/mL | 0.00713 µg/mL | 0.0601 µg/mL | 0.00666 µg/mL | 0.0923 µg/mL | 0.0989 µg/mL | 29.1 nM | 0.0104 s⁻¹ | 356000 M⁻¹ s⁻¹ | 74.8 nM | 0.0111 s⁻¹ | 148000 M⁻¹ s⁻¹ |  |  | binding result (rat HER3 protein [18]): no binding; IC50 (read off the curve) [19]: ~0.1 µg/mL; IC50 (read off the curve) [20]: ~0.5 µg/mL
B7 |  |  |  |  |  |  |  |  |  |  |  |  | 0.0096 µg/mL | 0.0101 µg/mL | 
